Source: patent US20120282285A1 (RIGSHOSPITALET, published 2012)

B1: MBL-Associated Serine Protease-3 (MASP-3) (enzyme)
chain: HTVELNNMFGQIQSPGYPDSYPSDSEVTWNITVPDGFRIKLYFMHFNLESSYLCEYDYVKVETEDQVLATFCGRETTDTEQTPGQEVVLSPGSFMSITFRSDFSNEERFTGFDAHYMAVDVDECKEREDEELSCDHYCHNYIGGYYCSCRFGYILHTDNRTCRVECSDNLFTQRTGVITSPDFPNPYPKSSECLYTIELEEGFMVNLQFEDIFDIEDHPEVPCPYDYIKIKVGPKVLGPFCGEKAPEPISTQSHSVLILFHSDNSGENRGWRLSYRAAGNECPELQPPVHGKIEPSQAKYFFKDQVLVSCDTGYKVLKDNVEMDTFQIECLKDGTWSNKIPTCKIVDCRAPGELEHGLITFSTRNNLTTYKSEIKYSCQEPYYKMLNNNTGIYTCSAQGVWMNKVLGRSLPTCLPECGQPSRSLPSLVKRIIGGRNAEPGLFPWQALIVVEDTSRVPNDKWFGSGALLSASWILTAAHVLRSQRRDTTVIPVSKEHVTVYLGLHDVRDKSGAVNSSAARVVLHPDFNIQNYNHDIALVQLQEPVPLGPHVMPVCLPRLEPEGPAPHMLGLVAGWGISNPNVTVDEIISSGTRTLSDVLQYVKLPVVPHAECKTSYESRSGNYSVTENMFCAGYYEGGKDTCLGDSGGAFVIFDDLSQRWVVQGLVSWGGPEECGSKQVYGVYTKVSNYVDWVWEQMGLPQSVVEPQVER
notes: also called rMASP-3
B2: small MBL-associated protein (sMAP) (other)
chain: TPLGPKWPEPVFGRLASPGFPGEYANDQERRWTLTAPPGYRLRLYFTHFDLELSHLCEYDFVKLSSGAKVLATLCGQESTDTERAPGKDTFYSLGSSLDITFRSDYSNEKPFTGFEAFYAAEDIDECQVAPGEAPTCDHHCHNHLGGFYCSCRAGYVLHRNKRTCSEQSL
notes: Serum protein in the sucrose gradient; also called MAp19; MBL-associated plasma protein of 19 kD

Experiments:
[1] = molecular target: T1, Ficolin-3 (human, UniProt O75636 24-299); test: 10-30% sucrose gradient of serum; fractions read by ELISA and western blot
T1 construct: Serum Ficolin-3 in the co-precipitations, ELISA and gradient. rFicolin-3 on acetylated BSA in the C4 deposition assays; also called rFicolin-3; recombinant human Ficolin-3
Protocol: (§1) Normal human serum was subjected to sucrose gradient separation. 0.75 ml serum was loaded onto 40 ml centrifugation columns consisting of 10-30% sucrose gradients buffered in 10 mM Tris, 145 mM NaCl, 3 mM CaCl₂ and human serum albumin at 30 μg/ml. The loaded columns were centrifuged at 150.000×g in vacuum for 24 hours at 4° C. in a L70 Beckmann ultracentrifuge with a SW28 rotor head. 1.5 ml fractions were collected from the bottom and analyzed by specific ELISA or immunoblotting for the following antigens: MAP-1, MASP-1, MASP-2, MASP-3, sMAP, MBL, Ficolin-2 and Ficolin-3. The peaks of the serum IgM (19S) and IgG (7S) were also assessed indicating the molecular […]. Additionally the fractions were analyzed for the capacity to activate exogenously applied C4. […] The C4 deposition was subsequently measured with polyclonal antibodies to C4c (Q 0369, Dako, Glostrup, Denmark).
(§2) In order to investigate the distribution of MAP-1 in relation to associated molecules and to examine how much appears non-associated we subjected normal human serum to density fractionation using a 10-30% sucrose gradient and ultracentrifugation. Subsequently the collected fractions were analyzed for MAP-1, MASP-3, MBL, Ficolin-2 and -3 by ELISA (FIG. 31A) and MAP-1, MASP-1, -2 and -3, sMAP, MBL, Ficolin-2 and -3 by western blotting (FIG. 31B). […]

[2] = molecular target: T1, Ficolin-3; test: 10-30% sucrose gradient of serum; fractions read by western blot
Protocol: as §1, §2

T1 sequence (O75636 24-299 limits assumed): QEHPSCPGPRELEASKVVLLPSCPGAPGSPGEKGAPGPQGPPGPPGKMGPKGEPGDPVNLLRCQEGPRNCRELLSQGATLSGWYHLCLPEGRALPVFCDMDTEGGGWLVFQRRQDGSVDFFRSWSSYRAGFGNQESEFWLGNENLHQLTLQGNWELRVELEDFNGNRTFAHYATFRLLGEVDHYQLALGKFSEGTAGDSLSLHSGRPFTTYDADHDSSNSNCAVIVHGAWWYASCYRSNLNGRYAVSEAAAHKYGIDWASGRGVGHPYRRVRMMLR

Binder	binding result [1]	binding result [2]
B1	binds	
B2		binds
